Data on 42 molecules can be found in patent US20140303084A1 (Biogen, published 2014).

First the molecules themselves.
B1: SKQGRPISPDrRAAGKLTCLASYCWLFWTGI (peptide)
peptide: SKQGRPISPD[dR]RAAGKLTCLASYCWLFWTGI
modifications: not fully specified; printed as SKQGRPISPDrRAAGKLTCLASYCWLFWTGI; cysteine pairing not given here
B2: GSVRRALFVA ARAPA KLTCLASYCWLFWTGIA (peptide)
peptide: GSVRRALFVAARAPAKLTCLASYCWLFWTGIA
B3: PRIRTVGPGSRSASGKLTCLASYCWLFWTGI (peptide)
peptide: PRIRTVGPGSRSASGKLTCLASYCWLFWTGI
B4: SKQGAPISPDrRAAGKLTCLASYCWLFWTGIA (peptide)
peptide: SKQGAPISPD[dR]RAAGKLTCLASYCWLFWTGIA
modifications: not fully specified; printed as SKQGAPISPDrRAAGKLTCLASYCWLFWTGIA; cysteine pairing not given here
B5: Pra-PEG4-PRIrTVGPGSrSASGKSTCLASYCWLFWTGIA (peptide)
peptide: [Pra][PEG4′]PRI[dR]TVGPGS[dR]SASGKSTCLASYCWLFWTGIA
modifications: not fully specified (C-terminus); printed as Pra-PEG4-PRIrTVGPGSrSASGKSTCLASYCWLFWTGIA; cysteine pairing not given here
B6: PTDTGPVISG LRAPG KLTCLASYCWLFWTGIA (peptide)
peptide: PTDTGPVISGLRAPGKLTCLASYCWLFWTGIA
B7: SKQGRPISPArRAAGKLTCLASYCWLFWTGIA (peptide)
peptide: SKQGRPISPA[dR]RAAGKLTCLASYCWLFWTGIA
modifications: not fully specified; printed as SKQGRPISPArRAAGKLTCLASYCWLFWTGIA; cysteine pairing not given here
B8: SKQGRAISPDrRAAGKLTCLASYCWLFWTGIA (peptide)
peptide: SKQGRAISPD[dR]RAAGKLTCLASYCWLFWTGIA
modifications: not fully specified; printed as SKQGRAISPDrRAAGKLTCLASYCWLFWTGIA; cysteine pairing not given here
B9: SKQGRPISPDrRAAGKLTCLASYCWLFW (peptide)
peptide: SKQGRPISPD[dR]RAAGKLTCLASYCWLFW
modifications: not fully specified; printed as SKQGRPISPDrRAAGKLTCLASYCWLFW; cysteine pairing not given here
B10: SAQGRPISPDrRAAGKLTCLASYCWLFWTGIA (peptide)
peptide: SAQGRPISPD[dR]RAAGKLTCLASYCWLFWTGIA
modifications: not fully specified; printed as SAQGRPISPDrRAAGKLTCLASYCWLFWTGIA; cysteine pairing not given here
B11: SKQGRPIAPDrRAAGKLTCLASYCWLFWTGIA (peptide)
peptide: SKQGRPIAPD[dR]RAAGKLTCLASYCWLFWTGIA
modifications: not fully specified; printed as SKQGRPIAPDrRAAGKLTCLASYCWLFWTGIA; cysteine pairing not given here
B12: SRIRTVGPGSRSASGKSTCLASYCWLFWTGIA (peptide)
peptide: SRIRTVGPGSRSASGKSTCLASYCWLFWTGIA
B13: PRIRTVGPGSRSASGKLTCLASYCWLFFTGIA (peptide)
peptide: B12 peptide with S1P, S17L, W28F
B14: PRIRTVGPGSRSASGKLSCLASYCWLFWTGIA (peptide)
peptide: B12 peptide with S1P, S17L, T18S
B15: PRIRTVGPGSRSASGKLTCLASYCWLFLTGIA (peptide)
peptide: B12 peptide with S1P, S17L, W28L
B16: PRIRTVGPGSRSASGKLTCLASYCWLLWTGIA (peptide)
peptide: B12 peptide with S1P, S17L, F27L
B17: SRIRTVSPGSRSASGKSTCLASYCWLFWTGIA (peptide)
peptide: B12 peptide with G7S
B18: PRIRTVGPGSRSASGKLTCLASYCWLFWSGIA (peptide)
peptide: B12 peptide with S1P, S17L, T29S
B19: PRIRTVGPGSRRASGKLTCLASYCWLFWTGIA (peptide)
peptide: B12 peptide with S1P, S12R, S17L
B20: PRIRTVGPGSRSASGKLTCVASYCWLFWTGIA (peptide)
peptide: B12 peptide with S1P, S17L, L20V
B21: PRSRTVGPGSRSASGKSTCLASYCWLFWTGIA (peptide)
peptide: B12 peptide with S1P, I3S
B22: PRIRTVGPGSRSASGKLTCLASYCWLFWTSIA (peptide)
peptide: B12 peptide with S1P, S17L, G30S
B23: PRIRTVGPGSRSASGKLTCLASACWLFWTGIA (peptide)
peptide: B12 peptide with S1P, S17L, Y23A
B24: PRIRTVGPGSRSASGKLTCLASYCWLFATGIA (peptide)
peptide: B12 peptide with S1P, S17L, W28A
B25: PRIRTVGPGSRSASGKLTCSASYCWLFWTGIA (peptide)
peptide: B12 peptide with S1P, S17L, L20S
B26: PRIRTVGPGSRSASGKLTCLASYCWLFWTFIA (peptide)
peptide: B12 peptide with S1P, S17L, G30F
B27: PRIRTVGPGSRSASGKLTCAASYCWLFWTGIA (peptide)
peptide: B12 peptide with S1P, S17L, L20A
B28: SRSRTVSPGSRSASGKSTCLASYCWLFWTGIA (peptide)
peptide: B12 peptide with I3S, G7S
B29: PRIRTVGPGSRSASGKLTCLASYCWLFWTLIA (peptide)
peptide: B12 peptide with S1P, S17L, G30L
B30: PRIRTVGPGSRSASGKLTCFASYCWLFWTGIA (peptide)
peptide: B12 peptide with S1P, S17L, L20F
B31: PRIRTVSPGSRSASGKSTCLASYCWLFWTGIA (peptide)
peptide: B12 peptide with S1P, G7S
B32: PRIRTVGPGSRSASGKLTCLASYCWLAWTGIA (peptide)
peptide: B12 peptide with S1P, S17L, F27A
B33: RRFVGGSLSQ RRAPG KLTCLASYCWLFWTGIA (peptide)
peptide: RRFVGGSLSQRRAPGKLTCLASYCWLFWTGIA
B34: AKQGRPISPDrRAAGKLTCLASYCWLFWTGIA (peptide)
peptide: AKQGRPISPD[dR]RAAGKLTCLASYCWLFWTGIA
modifications: not fully specified; printed as AKQGRPISPDrRAAGKLTCLASYCWLFWTGIA; cysteine pairing not given here
B35: PRIrTVGPGSrSASGKSTCLASYCWLFWTGIA-PEG4-Pra (peptide)
peptide: PRIRTVGPGSRSASGKSTCLASYCWLFWTGIAX
modifications: not fully specified; D-Arg 4, D-Arg 11, C-terminal PEG4-Pra
B36: SKQGRPISPDRRAAGKLTCLASYCWLFWTGIA-PEG2-K(PEG2-Biotin) (peptide)
peptide: SKQGRPISPDRRAAGKLTCLASYCWLFWTGIA[PEG2(3)]K([PEG2(3)-Biotin])
modifications: cysteine pairing not given here
B37: SKQGRPISPDrRAAGKLTCLASYCWLFWTG (peptide)
peptide: SKQGRPISPD[dR]RAAGKLTCLASYCWLFWTG
modifications: not fully specified; printed as SKQGRPISPDrRAAGKLTCLASYCWLFWTG; cysteine pairing not given here
B38: SKQGRPISADrRAAGKLTCLASYCWLFWTGIA (peptide)
peptide: SKQGRPISAD[dR]RAAGKLTCLASYCWLFWTGIA
modifications: not fully specified; printed as SKQGRPISADrRAAGKLTCLASYCWLFWTGIA; cysteine pairing not given here
B39: SRIrTVSPGSrSASGKSTCLASYCWLFWTGIA (peptide)
peptide: SRI[dR]TVSPGS[dR]SASGKSTCLASYCWLFWTGIA
modifications: not fully specified; printed as SRIrTVSPGSrSASGKSTCLASYCWLFWTGIA; cysteine pairing not given here
B40: SKAGRPISPDrRAAGKLTCLASYCWLFWTGIA (peptide)
peptide: SKAGRPISPD[dR]RAAGKLTCLASYCWLFWTGIA
modifications: not fully specified; printed as SKAGRPISPDrRAAGKLTCLASYCWLFWTGIA; cysteine pairing not given here
B41: SKQGRPISPDrRAAGKLTCLASYCWLFWT (peptide)
peptide: SKQGRPISPD[dR]RAAGKLTCLASYCWLFWT
modifications: not fully specified; printed as SKQGRPISPDrRAAGKLTCLASYCWLFWT; cysteine pairing not given here
B42: SKQARPISPDrRAAGKLTCLASYCWLFWTGIA (peptide)
peptide: SKQARPISPD[dR]RAAGKLTCLASYCWLFWTGIA
modifications: not fully specified; printed as SKQARPISPDrRAAGKLTCLASYCWLFWTGIA; cysteine pairing not given here

Numbering of substitutions follows the chain as printed. Square brackets hold non-standard residues; d marks the D form. Primed or numbered codes have the meaning given here. Side chains are listed from the residue outwards. Ends that are not written are not given here. * marks the point of attachment. Biotin = O=C1N[C@H]2[C@H](CS[C@H]2CCCCC(=O)*)N1; PEG2(3) = PEG2 spacer carrying biotin on Lys; Pra = C#CC[C@H](N)C(=O)O; PEG4′ = PEG4 spacer

For the test, the target named is human Factor IXa (human, UniProt P00740 47-191; P00740 227-461). Nature of the test: cell-based or functional assay.
As for B1, the “EC50 [µM], FXa generation assay” value is less than 0.5 µM.

For the molecule B2, the “EC50 [µM], FXa generation assay” value is less than 0.5 µM.

Regarding B3, the “EC50 [µM], FXa generation assay” value is less than 0.5 µM.

Take B4: the “EC50 [µM], FXa generation assay” value was less than 0.5 µM.

For B5, the “EC50 [µM], FXa generation assay” value is greater than 1 µM.

Regarding B6, the “EC50 [µM], FXa generation assay” value is less than 0.5 µM.

For the molecule B7, the “EC50 [µM], FXa generation assay” value is less than 0.5 µM.

Take B8: the “EC50 [µM], FXa generation assay” value was greater than 1 µM.

Regarding B9, the “EC50 [µM], FXa generation assay” value was less than 0.5 µM.

For the molecule B10, the “EC50 [µM], FXa generation assay” value is less than 0.5 µM.

On to B11, for which the “EC50 [µM], FXa generation assay” value is less than 0.5 µM.

On to B12, for which the “EC50 [µM], FXa generation assay” value is less than 0.5 µM.

As to B13, the “EC50 [µM], FXa generation assay” value is less than 0.5 µM.

As to B14, the “EC50 [µM], FXa generation assay” value was less than 0.5 µM.

With B15, the “EC50 [µM], FXa generation assay” value was less than 0.5 µM.

For the molecule B16, the “EC50 [µM], FXa generation assay” value is less than 0.5 µM.

B17: the “EC50 [µM], FXa generation assay” value was less than 0.5 µM.

In the case of B18, the “EC50 [µM], FXa generation assay” value is less than 0.5 µM.

With B19, the “EC50 [µM], FXa generation assay” value was less than 0.5 µM.

As to B20, the “EC50 [µM], FXa generation assay” value is greater than 1 µM.

As to B21, the “EC50 [µM], FXa generation assay” value was less than 0.5 µM.

As for B22, the “EC50 [µM], FXa generation assay” value was less than 0.5 µM.

With B23, the “EC50 [µM], FXa generation assay” value was greater than 1 µM.

For the molecule B24, the “EC50 [µM], FXa generation assay” value was less than 0.5 µM.

As for B25, the “EC50 [µM], FXa generation assay” value was greater than 1 µM.

In the case of B26, the “EC50 [µM], FXa generation assay” value is less than 0.5 µM.

On to B27, for which the “EC50 [µM], FXa generation assay” value was greater than 1 µM.

B28: the “EC50 [µM], FXa generation assay” value is less than 0.5 µM.

B29: the “EC50 [µM], FXa generation assay” value was less than 0.5 µM.

Turning to B30, the “EC50 [µM], FXa generation assay” value is greater than 1 µM.

Take B31: the “EC50 [µM], FXa generation assay” value is less than 0.5 µM.

On to B32, for which the “EC50 [µM], FXa generation assay” value is greater than 1 µM.

As to B33, the “EC50 [µM], FXa generation assay” value is less than 0.5 µM.

As for B34, the “EC50 [µM], FXa generation assay” value was less than 0.5 µM.

Regarding B35, the “EC50 [µM], FXa generation assay” value is less than 0.5 µM.

As for B36, the “EC50 [µM], FXa generation assay” value was greater than 1 µM.

As for B37, the “EC50 [µM], FXa generation assay” value is less than 0.5 µM.

Turning to B38, the “EC50 [µM], FXa generation assay” value was less than 0.5 µM.

B39: the “EC50 [µM], FXa generation assay” value is greater than 1 µM.

On to B40, for which the “EC50 [µM], FXa generation assay” value was less than 0.5 µM.

For B41, the “EC50 [µM], FXa generation assay” value is less than 0.5 µM.

On to B42, for which the “EC50 [µM], FXa generation assay” value was greater than 1 µM.
